T1: human CD122/CD132 on lymphocytes (NK cells and CD8+ T cells in human PBMCs) (human, UniProt P31785 23-369)
T1 sequence 1: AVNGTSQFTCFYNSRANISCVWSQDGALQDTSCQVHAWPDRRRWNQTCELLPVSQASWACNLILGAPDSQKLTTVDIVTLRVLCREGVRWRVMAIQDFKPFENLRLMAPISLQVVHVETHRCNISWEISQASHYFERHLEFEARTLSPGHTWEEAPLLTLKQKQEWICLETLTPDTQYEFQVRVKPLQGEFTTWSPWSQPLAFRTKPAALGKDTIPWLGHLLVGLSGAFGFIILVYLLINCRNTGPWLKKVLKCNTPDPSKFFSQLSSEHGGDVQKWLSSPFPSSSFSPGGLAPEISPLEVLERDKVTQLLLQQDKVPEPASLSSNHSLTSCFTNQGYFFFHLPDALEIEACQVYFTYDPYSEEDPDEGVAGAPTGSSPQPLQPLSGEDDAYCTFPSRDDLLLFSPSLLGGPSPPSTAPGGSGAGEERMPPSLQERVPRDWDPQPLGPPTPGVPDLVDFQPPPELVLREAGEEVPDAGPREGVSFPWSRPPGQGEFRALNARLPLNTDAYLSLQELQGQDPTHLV
T1 sequence 2: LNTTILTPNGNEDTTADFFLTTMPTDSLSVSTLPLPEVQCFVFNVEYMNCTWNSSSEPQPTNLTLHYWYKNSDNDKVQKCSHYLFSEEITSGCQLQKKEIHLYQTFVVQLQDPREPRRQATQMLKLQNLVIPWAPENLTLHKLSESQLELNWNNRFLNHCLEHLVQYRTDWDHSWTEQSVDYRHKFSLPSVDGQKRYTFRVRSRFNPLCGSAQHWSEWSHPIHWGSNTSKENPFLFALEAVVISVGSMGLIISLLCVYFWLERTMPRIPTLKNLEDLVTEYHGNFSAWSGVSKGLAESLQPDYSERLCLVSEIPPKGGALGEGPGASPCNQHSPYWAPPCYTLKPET

T2: cynomolgus monkey CD122/CD132 on lymphocytes (NK cells and CD8+ T cells in cynomolgus monkey PBMCs) (cynomolgus monkey, UniProt Q38J85 27-551; A0A2K5VGJ6 23-369)
T2 sequence (looked up) 1: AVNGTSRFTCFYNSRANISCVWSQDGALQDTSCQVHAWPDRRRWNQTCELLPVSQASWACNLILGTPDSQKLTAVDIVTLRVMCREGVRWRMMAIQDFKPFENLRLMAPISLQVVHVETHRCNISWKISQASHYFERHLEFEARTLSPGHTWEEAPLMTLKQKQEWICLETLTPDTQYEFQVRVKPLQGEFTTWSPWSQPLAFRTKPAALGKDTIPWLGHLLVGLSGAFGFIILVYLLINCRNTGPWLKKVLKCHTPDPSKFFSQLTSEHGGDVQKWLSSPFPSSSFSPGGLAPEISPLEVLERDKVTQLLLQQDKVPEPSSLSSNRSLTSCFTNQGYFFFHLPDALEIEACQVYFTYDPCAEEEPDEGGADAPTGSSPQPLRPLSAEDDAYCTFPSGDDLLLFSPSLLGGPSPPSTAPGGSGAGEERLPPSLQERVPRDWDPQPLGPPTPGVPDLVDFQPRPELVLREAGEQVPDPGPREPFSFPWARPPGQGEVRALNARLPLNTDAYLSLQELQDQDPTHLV
T2 sequence (looked up) 2: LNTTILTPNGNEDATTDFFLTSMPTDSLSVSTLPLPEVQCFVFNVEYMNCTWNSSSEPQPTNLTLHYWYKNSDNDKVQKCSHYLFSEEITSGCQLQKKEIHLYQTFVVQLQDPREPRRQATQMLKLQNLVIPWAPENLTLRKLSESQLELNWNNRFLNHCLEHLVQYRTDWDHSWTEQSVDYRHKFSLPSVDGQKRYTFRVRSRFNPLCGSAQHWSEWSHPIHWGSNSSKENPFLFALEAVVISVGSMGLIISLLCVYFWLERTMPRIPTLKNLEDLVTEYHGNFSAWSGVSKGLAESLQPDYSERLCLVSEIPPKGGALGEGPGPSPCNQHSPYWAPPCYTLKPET

T3: mouse FcRn (mouse, UniProt Q61559 22-297; P01887 21-119)
T3 construct: also called neonatal Fc receptor
T3 sequence (looked up): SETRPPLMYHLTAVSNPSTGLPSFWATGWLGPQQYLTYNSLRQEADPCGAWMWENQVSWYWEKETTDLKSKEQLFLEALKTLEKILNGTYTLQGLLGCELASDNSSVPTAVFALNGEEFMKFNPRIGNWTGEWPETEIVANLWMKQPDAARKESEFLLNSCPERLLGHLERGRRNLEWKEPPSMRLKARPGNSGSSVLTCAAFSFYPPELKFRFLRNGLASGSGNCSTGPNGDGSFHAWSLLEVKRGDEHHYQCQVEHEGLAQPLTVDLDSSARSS
T3 sequence (b2m, looked up): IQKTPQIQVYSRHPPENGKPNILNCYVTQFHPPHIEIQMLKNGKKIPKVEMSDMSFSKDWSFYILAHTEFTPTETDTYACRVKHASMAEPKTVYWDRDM


How the values were obtained:
[1] = target: T1, human CD122/CD132 on lymphocytes (NK …); assay: cell-based or functional assay
[2] = target: T2, cynomolgus monkey CD122/CD132 on …; assay: cell-based or functional assay
[3] = target: human complement component 1q (C1q) (human, UniProt P02745 23-245; P02746 28-253; P02747 29-245); assay: BLI; tested as XENP24306+XENP32803
cynomolgus monkey FcRn = target: T4, cynomolgus monkey FcRn (cynomolgus monkey, UniProt Q8SPV9 24-297; Q8SPW0 21-119); assay: Bio-Layer Interferometry, pH 6.0; tested as ~82%/~18% mixture
T4 construct: also called neonatal Fc receptor

mouse FcRn = target: T3, mouse FcRn; assay: as above
human FcRn = target: T5, human FcRn (human, UniProt P55899 24-297; P61769 21-119); assay: as above
T5 construct: also called neonatal Fc receptor
T5 sequence (P55899 24-297 limits assumed, chain 1 of 2): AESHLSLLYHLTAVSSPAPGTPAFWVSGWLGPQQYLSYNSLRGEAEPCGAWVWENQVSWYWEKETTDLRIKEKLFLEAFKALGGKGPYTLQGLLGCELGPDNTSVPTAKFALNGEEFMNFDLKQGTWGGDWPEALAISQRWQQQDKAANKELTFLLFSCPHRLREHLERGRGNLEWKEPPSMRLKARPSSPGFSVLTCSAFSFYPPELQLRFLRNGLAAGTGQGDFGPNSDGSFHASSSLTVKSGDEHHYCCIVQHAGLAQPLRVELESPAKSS
T5 sequence (P61769 21-119 limits assumed, chain 2 of 2): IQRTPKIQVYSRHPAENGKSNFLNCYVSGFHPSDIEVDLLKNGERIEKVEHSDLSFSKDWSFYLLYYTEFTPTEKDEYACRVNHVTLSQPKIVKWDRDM

Chain of human complement component 1q (C1q) (P02745 23-245 limits assumed, chain 1 of 3): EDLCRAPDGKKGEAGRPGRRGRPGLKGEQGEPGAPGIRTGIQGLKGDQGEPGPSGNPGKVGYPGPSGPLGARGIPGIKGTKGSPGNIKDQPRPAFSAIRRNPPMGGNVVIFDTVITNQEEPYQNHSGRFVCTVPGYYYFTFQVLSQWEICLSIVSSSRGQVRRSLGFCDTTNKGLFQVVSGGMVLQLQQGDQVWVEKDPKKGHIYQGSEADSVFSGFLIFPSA
Chain of human complement component 1q (C1q) (P02746 28-253 limits assumed, chain 2 of 3): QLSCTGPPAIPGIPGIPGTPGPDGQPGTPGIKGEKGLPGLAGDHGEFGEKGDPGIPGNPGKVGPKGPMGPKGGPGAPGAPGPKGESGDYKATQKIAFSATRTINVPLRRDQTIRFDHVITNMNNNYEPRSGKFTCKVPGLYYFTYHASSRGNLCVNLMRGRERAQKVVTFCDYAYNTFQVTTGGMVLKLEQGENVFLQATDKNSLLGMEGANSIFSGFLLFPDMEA
Chain of human complement component 1q (C1q) (P02747 29-245 limits assumed, chain 3 of 3): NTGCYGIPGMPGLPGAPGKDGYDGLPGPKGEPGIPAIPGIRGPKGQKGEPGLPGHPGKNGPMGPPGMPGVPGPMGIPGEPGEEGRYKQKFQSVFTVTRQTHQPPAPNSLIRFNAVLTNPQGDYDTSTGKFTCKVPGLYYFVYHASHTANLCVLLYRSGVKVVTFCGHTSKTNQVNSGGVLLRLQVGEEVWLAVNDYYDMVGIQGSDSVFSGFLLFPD
T4 sequence (Q8SPV9 24-297 limits assumed, chain 1 of 2): as the sequence (P55899 24-297 limits assumed, chain 1 of 2) above, with N39D, E44Q, G99S, S189G, S190N, L217M, S269T counted along it
T4 sequence (Q8SPW0 21-119 limits assumed, chain 2 of 2): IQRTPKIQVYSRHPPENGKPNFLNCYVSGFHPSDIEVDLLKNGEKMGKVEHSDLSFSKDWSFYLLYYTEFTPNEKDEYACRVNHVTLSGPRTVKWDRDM

Binder	EC50 of human CD8+ T cell proliferation (Ki67+) in human PBMCs [1] [µg/mL]	EC50 of human NK-cell proliferation (Ki67+) in human PBMCs [1] [µg/mL]	potency on human CD8+ terminal effector T cells (Ki67 proliferation), fold lower than recombinant wild-type IL-15 [1] [fold]	potency on human CD8+ terminal effector T cells (Ki67 proliferation), fold lower than wild-type IL-15/wild-type IL-15Rα heterodimer Fc fusion XENP22853 [1] [fold]	EC50 of CD8+ T cell proliferation in cynomolgus monkey PBMCs [2] [µg/mL]	EC50 of NK-cell proliferation in cynomolgus monkey PBMCs [2] [µg/mL]	binding result [3]	binding result (cynomolgus monkey FcRn)	binding result (mouse FcRn)	binding result (human FcRn)
XENP24306 (Fc fusion, Never tested alone: every experiment used a combination of XENP24306 (~82%) and XENP32803 (~18%); Each result of the combination is written once for each of the two proteins; also called IL15/IL15Rα heterodimeric protein; XENP24306+XENP32803 (about 82% of the tested combination); copies: 1 + 1) chain 1: NWVNVISDLKKIEDLIQSMHIDATLYTESNVHPSCKVTAMKCFLLELQVISLESGDASIHDTVQDLIILANNSLSSNGNVTESGCKECEELEEKNIKEFLQSFVHIVQMFINTSGGGGSEPKSSDKTHTCPPCPAPPVAGPSVFLFPPKPKDTLMISRTPEVTCVVVDVKHEDPEVKFNWYVDGVEVHNAKTKPREEEYNSTYRVVSVLTVLHQDWLNGKEYKCKVSNKALPAPIEKTISKAKGQPREPQVYTLPPSREEMTKNQVSLTCDVSGFYPSDIAVEWESDGQPENNYKTTPPVLDSDGSFFLYSKLTVDKSRWEQGDVFSCSVLHEALHSHYTQKSLSLSPGK chain 2: ITCPPPMSVEHADIWVKSYSLYSRERYICNSGFKRKAGTSSLTECVLNKATNVAHWTTPSLKCIRGGGGSEPKSSDKTHTCPPCPAPPVAGPSVFLFPPKPKDTLMISRTPEVTCVVVDVKHEDPEVKFNWYVDGVEVHNAKTKPREEQYNSTYRVVSVLTVLHQDWLNGKEYKCKVSNKALPAPIEKTISKAKGQPREPQVYTLPPSREQMTKNQVKLTCLVKGFYPSDIAVEWESNGQPENNYKTTPPVLDSDGSFFLYSKLTVDKSRWQQGNVFSCSVLHEALHSHYTQKSLSLSPGK	12.7	1.2	~900	~400	3.8	0.5	no binding	binds	binds	binds
XENP32803 (Fc fusion, Never tested alone: every experiment used a combination of XENP24306 (~82%) and XENP32803 (~18%); Each result of the combination is written once for each of the two proteins; also called IL15/IL15Rα heterodimeric protein; XENP24306+XENP32803 (about 18% of the tested combination); copies: 1 + 1) chain 1: NWVNVISDLKKIEDLIQSMHIDATLYTESNVHPSCKVTAMKCFLLELQVISLESGDASIHDTVQDLIILANNSLSSNGNVTESGCKECEELEEKNIKEFLQSFVHIVQMFINTSGGGGSEPKSSDKTHTCPPCPAPPVAGPSVFLFPPKPKDTLMISRTPEVTCVVVDVKHEDPEVKFNWYVDGVEVHNAKTKPREEEYNSTYRVVSVLTVLHQDWLNGKEYKCKVSNKALPAPIEKTISKAKGQPREPQVYTLPPSREEMTKNQVSLTCDVSGFYPSDIAVEWESDGQPENNYKTTPPVLDSDGSFFLYSKLTVDKSRWEQGDVFSCSVLHEALHSHYTQKSLSLSPGK chain 2: ITCPPPMSVEHADIWVKSYSLYSRERYICNSGFKRKAGTSSLTECVLNKATNVAHWTTPSLKCIRGGGGSEPKSSDKTHTCPPCPAPPVAGPSVFLFPPTPKDTLMISRTPEVTCVVVDVKHEDPEVKFNWYVDGVEVHNAKTKPREEQYNSTYRVVSVLTVLHQDWLNGKEYKCKVSNKALPAPIEKTISKAKGQPREPQVYTLPPSREQMTKNQVKLTCLVKGFYPSDIAVEWESNGQPENNYKTTPPVLDSDGSFFLYSKLTVDKSRWQQGNVFSCSVLHEALHSHYTQKSLSLSPGK	12.7	1.2	~900	~400	3.8	0.5	no binding	binds	binds	binds

Source: patent US20240366726A1 (Genentech, published 2024)
